Results taken from patent US10369195B2, “Methods and compositions for preventing and treating damage to the heart” (MandalMed, Inc., priority 2016, dated 2019).
Entries after “also recorded” stand apart in the source; their conditions may differ.

How the values were obtained:
[1] = system: rat ischemia-reperfusion model of MI; test: Serial echocardiography (ejection fraction, ESV, EDV) after ischemia-reperfusion MI; type: in vivo; settings: for EF, benefit relative to PBS: out to 8 weeks post-MI, Gal-3C 600 μg/day days 4-10, losartan 8 mg/kg/day in drinking water 56 days
Procedure: Animal experiments to test the therapeutic potential of Gal-3C in the preservation of post-MI cardiac function were performed using surgical induction of MI in rodents and functional evaluation of treatment as previously described (61-66). To most accurately model cardiac damage experienced by MI patients, a well-established ischemia-reperfusion procedure was used in which the left anterior descending coronary artery (LAD) of rats was occluded for 25 min followed by restoration of blood flow (67). This standard MI model is more clinically relevant than permanent LAD ligation models because the reperfusion experienced after post-MI angioplasty not only limits the size of the infarct, but paradoxically introduces free radical damage, and is well validated as a model for post-MI heart failure experimental therapies (68).
Experiments were performed according to the UCSF guidelines for rodent survival surgery and the Guide for the Care and Use of Laboratory Animals of the US National Institutes of Health. Male Sprague-Dawley rats (age 10-12 weeks) were anesthetized with isoflurane (2%), received analgesics (buprenorphine (0.1 mg/kg), subcutaneous injection) pre- and post-operation, and underwent ischemia-reperfusion MI involving temporary (25 minutes) occlusion of the left anterior descending coronary artery (LAD) to produce regional moderate myocardial ischemia.
Briefly, rats were ventilated to a small animal volume-controlled ventilator (Harvard Rodent Ventilator, Model 683, South Natick, Mass.), and the heart was exposed via thoracotomy. Occlusion proceeds with a 7-0 nonabsorbable surgical suture passed under the LAD 2-3 mm from tip of the normally positioned left auricle and tied around a 1-mm section of PE-50 tubing, tightening with an artery clamp to temporarily occlude the LAD. After occlusion for 25 minutes, reperfusion was allowed to the formerly ischemic bed. The chest was then closed with removal of excess fluid and air from the chest cavity. All animals were monitored post-operation until they became ambulatory. The mortality during MI procedure was 12%.
The highest dose, 600 μg/rat/day, and the lowest dose, 200 μg/rat/day, were chosen for continued study, representing approximately 2- and 5.5-fold higher doses based on body surface area of rats than was used in the multiple myeloma study of Gal-3C in mice (70). Groups of rats (n=10) were treated with low (200 μg/day) and high (600 μg/day doses of Gal-3C or with PBS-lactose (vehicle control) administered over 0-6 days post-MI (“early window”; primed pumps were implanted several minutes before the MI procedure on day 0). These groups were designed to be sufficiently powered to detect potentially statistically significant improvement from Gal-3C treatment.
(§1) Pre-filled and primed mini-osmotic pumps were implanted a few minutes before surgical induction of MI and Gal-3C treatment continued for 7 days (denoted as “early window”) as in the pilot study described above. The effect of treatment on cardiac function was evaluated by serial echocardiography on day 0 pre-MI, 2 and 28 days post-MI, and LV pressure measurement at 28 days. For the early window, groups consisted of sham surgery with PBS, sham with 600 μg/day Gal-3C, MI with PBS, MI with 200 μg/day Gal-3C, and MI with 600 μg/day Gal-3C.
In a subsequent experiment, the high dose Gal-3C and the PBS control were administered by Alzet pump over a delayed delivery window of from 4 days until 10 days post-MI (denoted as “delayed window”) to rats that had been subjected to the same ischemia-reperfusion procedure as described in Example 2 above. Delayed treatment might better enable fibrotic repair of the infarct while preventing wall rupture. […]

[2] = system: rat ischemia-reperfusion model of MI; test: Intraventricular (LV) pressure / hemodynamic measurements after ischemia-reperfusion MI; type: in vivo; settings: for LVEDP, benefit relative to PBS / LVSP, benefit relative to PBS / mean ABP, benefit relative to PBS: 8 weeks post-MI, Gal-3C 600 μg/day days 4-10, losartan 8 mg/kg/day in drinking water 56 days
Procedure: as §1
Serial echocardiography was performed at 2, 28, and 56 days (8 weeks) post-MI and terminal intraventricular pressure catheter measurements were obtained. The effect on cardiac function from losartan was compared to the effect of Gal-3C that included data from the 12 animals in the Gal-3C and the 12 animals in the vehicle-only group that were presented in FIG. 9 and FIG. 10. […] The results described herein indicate that treatment with Gal-3C post-MI would be more beneficial on recovery and preservation of heart function compared to treatment with losartan or another ARB alone.

[3] = system: rat ischemia-reperfusion model of MI; test: Infarct size from Masson's trichrome-stained heart sections (volumetric, % area scarred); type: in vivo; settings: 600 μg/day
Description: (§2) After rats in the delayed treatment study were euthanized, hearts were harvested and sectioned for Masson's trichrome and Sirius red staining with quantitative image analysis to assess remodeling. Rather than using an optimized approach for infarct size measurement in permanent ligation rat models (64), it was confirmed that in the ischemia-reperfusion MI model, a volumetric infarct sizing approach (i.e., % area in the tissue sections that was scarred) would be more accurate. Using this approach for analysis of Masson's trichrome staining, it was shown that the infarct size was considerably (>2-fold) reduced in Gal-3C-treated (600 μg/day) rats, a difference that achieved significance with Gal-3C treatment in the delayed window (FIG. 8A).
As described in Example 3 above, rats were euthanized at 8 weeks post-MI, hearts were harvested and sectioned for Masson's trichrome and Sirius red staining with quantitative image analysis using a volumetric infarct sizing approach (i.e., % area in the tissue sections that was scarred) for analysis of Masson's trichrome staining to calculate the size of the primary infarct.

[4] = system: rat ischemia-reperfusion model of MI; test: Interstitial (non-scar) border zone fibrosis from Sirius red-stained heart sections; type: in vivo; settings: delayed window, 600 μg/day
Description: as §2
Quantitative histology of Sirius red staining for interstitial fibrosis was performed on tissue sections with the most scar from each heart as described above in Example 3 using ImageJ.

[5] = system: rat ischemia-reperfusion model of MI; test: Pilot dose-finding study: hydroxyproline assay of collagen in the left ventricle after ischemia-reperfusion MI; type: in vivo; settings: 100, 200, 400, 600 μg/day by osmotic pump from day 0 for 7 days; vs vehicle; n=2-3
Procedure: Animal experiments to test the therapeutic potential of Gal-3C in the preservation of post-MI cardiac function were performed using surgical induction of MI in rodents and functional evaluation of treatment as previously described (61-66). To most accurately model cardiac damage experienced by MI patients, a well-established ischemia-reperfusion procedure was used in which the left anterior descending coronary artery (LAD) of rats was occluded for 25 min followed by restoration of blood flow (67). […]
Briefly, rats were ventilated to a small animal volume-controlled ventilator (Harvard Rodent Ventilator, Model 683, South Natick, Mass.), and the heart was exposed via thoracotomy. […] All animals were monitored post-operation until they became ambulatory. […]
A pilot dose-finding study was performed to determine Gal-3C levels reducing fibrosis, with collagen levels in heart tissue extracts as surrogate endpoints. […] It was determined that an equivalent to the mouse dose for use in rats of 250-300 g/body weight based on m^2 of average body surface area of the two species as approximately 105 μg/day. […]

[6] = system: Primary human cardiac fibroblasts; test: TGFβ1-induced differentiation of primary cardiac fibroblasts to myofibroblasts (immunoblots of SMA and tensin 1); type: cell-based
Procedure: Galectin-3 was purified on lactosyl-sepharose from recombinant E. coli pelleted from 40 L of culture, collagenase digested, and then Gal-3C was isolated on lactosyl sepharose as previously described (41). Primary human cardiac fibroblasts (Cell Applications, San Diego, Calif.) were purchased and cultured as per the vendor's recommendations. 200,000 cells at passage 2-3 were cultured in 6-well plates until confluent, starved for 48 h and then induced to differentiate to myofibroblasts by treatment with […] TGFβ1 for 48-72 h. Varying concentrations of Gal-3C were also incubated with the cells. The cells were harvested, lysates prepared, and total protein quantified with a BCA assay (Pierce/Thermo). A total of […] protein was analyzed per condition by immunoblots using primary Abs against smooth muscle actin (SMA) and tensin 1 (Sigma-Aldrich).

[7] = system: xenograft model of human multiple myeloma; settings: mice; 30 μg/day by ALZET mini-osmotic pumps; cited from earlier work
[8] = Gal-3C 600 μg/day days 4-10 vs losartan 8 mg/kg/day 56 days, 15/group
[9] = delayed window (4-10 days post-MI), 600 μg/day, 28 days post-MI, vs vehicle
[10] = delayed window Gal-3C, 8 weeks (day 56) post-MI, expanded groups 15/group (FIG. 12)
[11] = delayed window, 600 μg/day, 8 weeks (day 56) post-MI, vs vehicle, n=12/group
[12] = early window (0-6 days post-MI), 200 and 600 μg/day, 28 days post-MI, vs PBS
[13] = delayed window, 600 μg/day, 8 weeks, vs controls, n=12/group
[14] = TGFβ1 5 or 15 mg/ml for 48-72 h, varying concentrations of Gal-3C

CCCCc1nc(Cl)c(CO)n1Cc1ccc(-c2ccccc2-c2nn[nH]n2)cc1 [losartan, reference compound]
EF, benefit relative to PBS ([1]; 15/group): no significant benefit
LVEDP, benefit relative to PBS ([2]; 15/group): no significant benefit
LVSP, benefit relative to PBS ([2]; 15/group): no significant benefit
mean ABP, benefit relative to PBS ([2]; 15/group): no significant benefit

B1: Gal-3C: N-terminally truncated form of full length galectin-3, lacking the amino-terminal domain but retaining carbohydrate binding ability; 143 carboxy-terminal residues, SEQ ID NO: 3 (protein)
chain: GAPAGPLIVPYNLPLPGGVVPRMLITILGTVKPNANRIALDFQRGNDVAFHFNPRFNENNRRVIVCNTKLDNNWGREERQSVFPFESGKPFKIQVLVEPDHFKVAVNDAHLLQYNHRVKKLNEISKLGISGDIDITSASYTMI
reduction of infarct size ([3]; 28 days post-MI, significant in the delayed window): > 2 fold
infarct size vs PBS group ([3]; delayed window, 8 weeks post-MI): significantly smaller
EF, benefit relative to losartan [1, 8]: statistically significant benefit
ESV, benefit relative to losartan [1, 8]: statistically significant benefit
ESV [1, 9]: significant benefit; also recorded: statistically significant improvements
LV EDV [1, 9]: no benefit
LV ejection fraction [1, 9]: significant benefit; also recorded: statistically significant improvements
EDV [1, 10]: beneficial effect
ESV [1, 10]: beneficial effect
ejection fraction at 8 weeks compared to 4 weeks in treated animals ([1]; delayed window, 600 μg/day): trend but not a statistically significant increase
EDV [1, 11]: significant benefit
ESV [1, 11]: beneficial effect
ejection fraction [1, 11]: beneficial effect
LV end diastolic volume (EDV) [1, 12]: no benefit
end systolic volume (ESV) [1, 12]: profound benefit
left ventricular ejection fraction [1, 12]: profound benefit
cardiac function by echocardiography (ejection fraction, ESV, EDV) ([1]; early window treatment, 2 days post-MI): no benefit observed
EF, benefit relative to PBS ([1]; 15/group): statistically significant benefit
reduction of interstitial fibrosis relative to vehicle-only controls ([4]; 8 weeks post-MI, n=12/group): roughly 50%
interstitial fibrosis (Sirius red), mean +/- SD ([4]; 8 weeks post-MI, n=12/group, P=0.0003 vs PBS-only): 2.4+/−1.3%
reduction of interstitial fibrosis vs vehicle-only controls ([4]; 28 days post-MI): ~65%
reduction of collagen levels in the LV (hydroxyproline assay) [5]: 20-35%
LVEDP, benefit relative to PBS ([2]; 15/group): statistically significant benefit
LVSP, benefit relative to PBS ([2]; 15/group): statistically significant benefit
mean ABP, benefit relative to PBS ([2]; 15/group): statistically significant benefit
LVEDP, benefit relative to losartan [2, 8]: statistically significant benefit
LVSP, benefit relative to losartan [2, 8]: statistically significant benefit
dP/dt max and dP/dt min ([2]; delayed window Gal-3C, 8 weeks, expanded groups 15/group (FIG. 13)): did not reach significance
LVEDP [2, 13]: reached significance
LVSP [2, 13]: reached significance
dP/dt max [2, 13]: did not reach significance
dP/dt min [2, 13]: did not reach significance
mean ABP [2, 13]: reached significance
all five hemodynamic parameters (mean ABP, LVSP, LVEDP, dP/dt max, dP/dt min) ([2]; delayed window, 600 μg/day, 28 days, vs vehicle): statistically significant improved
intraventricular pressure measurement (mean ABP, LVSP, LVEDP, dP/dt max, dP/dt min) ([2]; early window, 200 and 600 μg/day, 28 days, vs PBS): did not reach statistical significance
hemodynamic parameters (mean ABP, dp/dt max and min), 600 μg/day compared to 200 μg/day ([2]; early window, 28 days): Trends to greater improvement
differentiation to myofibroblasts induced by TGF1β (decreased expression of tensin-1 and SMA) ([6]; Gal-3C 4-20 μg/ml, TGF1β 15 μg/ml): inhibited the differentiation to myofibroblasts
expression of SMA (smooth muscle actin), immunoblot [6, 14]: inhibited expression
expression of tensin 1, immunoblot [6, 14]: inhibited expression
efficacy in xenograft model of human multiple myeloma [7]: good efficacy
